The source of these data is article PMC10253590, “The Product of the Fission Yeast fhl1 Gene Binds to the HomolE Box and Activates In Vitro Transcription of Ribosomal Protein Genes”.

Data set [1] has as its target T1, Fhl1 (Schizosaccharomyces pombe, UniProt O14270 1-743).
T1 sequence: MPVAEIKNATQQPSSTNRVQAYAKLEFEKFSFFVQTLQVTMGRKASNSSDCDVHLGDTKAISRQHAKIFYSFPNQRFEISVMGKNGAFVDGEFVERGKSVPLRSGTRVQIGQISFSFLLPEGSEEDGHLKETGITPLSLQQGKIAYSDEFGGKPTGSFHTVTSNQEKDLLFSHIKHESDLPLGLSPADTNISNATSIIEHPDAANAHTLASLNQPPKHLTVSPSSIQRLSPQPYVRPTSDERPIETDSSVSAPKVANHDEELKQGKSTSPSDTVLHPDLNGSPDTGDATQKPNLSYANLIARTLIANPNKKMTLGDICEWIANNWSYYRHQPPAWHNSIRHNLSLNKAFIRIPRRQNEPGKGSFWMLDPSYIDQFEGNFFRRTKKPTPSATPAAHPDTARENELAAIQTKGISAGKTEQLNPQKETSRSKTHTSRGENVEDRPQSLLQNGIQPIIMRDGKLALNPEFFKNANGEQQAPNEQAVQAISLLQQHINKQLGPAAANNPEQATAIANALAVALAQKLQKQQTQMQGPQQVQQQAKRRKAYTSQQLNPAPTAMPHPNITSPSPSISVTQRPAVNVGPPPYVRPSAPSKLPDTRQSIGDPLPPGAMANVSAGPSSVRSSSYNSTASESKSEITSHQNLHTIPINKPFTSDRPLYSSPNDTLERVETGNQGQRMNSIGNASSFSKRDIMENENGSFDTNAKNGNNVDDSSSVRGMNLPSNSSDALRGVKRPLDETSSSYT
Kind of data set: EMSA; 10 ng Fhl1; poly(dG-dC); 20 mM HEPES pH 7.9, 50 mM KCl, 10 mM MgCl2, 0.1 mM EDTA, 5% glycerol, 5 mM DTT, 0.1 mM PMSF, 5 ug acetylated BSA, 50 ng poly(dG-dC), no PEG; 5 min 25 C then 15. Particulars: protein: recombinant; tags: His tag (pET15b; Ni-NTA purified); label: 32P 5' end.

The target of data set [2] is T1, Fhl1. In words: competition; EMSA; 50 ng cold competitor vs N1 probe; 20 mM HEPES pH 7.9, 50 mM KCl, 10 mM MgCl2, 0.1 mM EDTA, 5% glycerol, 5 mM DTT, 0.1 mM PMSF, 5 ug acetylated BSA, 50 ng poly(dG-dC), no PEG; 5 min 25 C then 15. Particulars: protein: recombinant; tags: His tag (pET15b; Ni-NTA purified).
Data set [3] addresses T1, Fhl1. In words: competition; EMSA; 12.5, 25, 50 ng cold competitor vs N1 probe; 20 mM HEPES pH 7.9, 50 mM KCl, 10 mM MgCl2, 0.1 mM EDTA, 5% glycerol, 5 mM DTT, 0.1 mM PMSF, 5 ug acetylated BSA, 50 ng poly(dG-dC), no PEG; 5 min 25 C then 15. Particulars: protein: recombinant; tags: His tag (pET15b; Ni-NTA purified).

B1: HomolE probe (two tandem HomolE boxes) (dsDNA)
DNA 1: TTCGTTGAGGGTAGGGTTGAGGGTAGGGTTATGC
DNA 2: GCATAACCCTACCCTCAACCCTACCCTCAACGAA
Consider B1, for which the binding result with Fhl1 [1] is “binds”.

B2: HD (HomolD) cold competitor (dsDNA)
DNA 1: TGAAAACAGTCACATTTTAC
DNA 2: GTAAAATGTGACTGTTTTCA
Regarding B2, in the data set with Fhl1 [2], the binding result was “no binding”.

B3: mHE cold competitor (dsDNA)
DNA 1: TTCGTTGAGTGTAGTGTTGC
DNA 2: GCAACACTACACTCAACGAA
As to B3, the binding result with Fhl1 [2] was “no binding”.

B4: HE cold competitor (dsDNA)
DNA 1: TTCGTTGAGGGTAGGGTTGC
DNA 2: GCAACCCTACCCTCAACGAA
As to B4, the binding result with Fhl1 [3] is reported as “binds”.
